Data taken from a protein production outcome set (Wang et al. 2014).

Assay: label from the status in PepcDB records

Sequence	protein production
MADGATAVRRGLSGATRLSARFTADAETGTRQGMQALPTSRRLCASLRSLPERALAMLPAVVLALLPVIAMLLALAPGNARVAEDCALRVEGQARHADDQRIMSTVRALAQALGEVAQATPPDEREAKLIRSISPVRYGEGPWDYVILSRGTVHLYTPGMEGAAGVDFANATDARGVPFVQEMQSRAVLGGGFTEWTARRADGSTETRRVYSLVVPGTEYWLGAWTTPDGATTAKNEARNGVLITADHAAHRAALWGIMAGLPAALVLHRLLTASQRLRQEKDRR	failed
MADGVLAVSQEGFNTLQSYNVGEKYTADLWIQQGGLKSTASVVSFSVDKALLDSMNIADGTSYELLPADCYQLTKSSVDIPANERLLKGELTYDPAKIQELSGYDHLKYVLPLRATSSGMPFVSGRSVLLLGFKVSEPIVTIMNAGVEEINLAEVKELPVQIGVPFTNKWEISCRLESRQSVIDAYNTAHGTYFSMLPSDAYVTPETPILHSGVNQVTATYKLKDDILPGNYMLPVQIAEVTSDATIRADKDVYAAYSIIKEGDKLSKTDWKIVSFTTEEASGEGSNNGHAKHLIDGNIETFWHSRWQGGSDPLPYEIIIDMNHRVKIAQIELLPRGRGSNNPIKVVRFEASEDGTNWESIGQFGFTNQDAALKYYVKSSTARYIKLVIPDGVGNGTVAAIRELDVRGTVVNLEHHHHHH	not failed
MADHSIQGKVALIAGGAKNLGGLIARDLAAHGARAIAIHYNSPASKADADATVAALQAAGAQAVALQGDLTTAAAVEKLYADALAAVGRPDIAINTVGKVLKKPFSEISEAEYDEMAAVNAKSAFFFLKEAGRHVNDHGKIVTLVTSLLGAFTPFYSAYAGTKAPVEHYTRAAAKEFGARGISVTAVGPGPMDTPFFYGQESPEAVAYHQSAAALSPHSPTGLTHIEDVVPFIRHLVSDGWWITGQTLLINGGYTTK	not failed
MADIKRIALLSGGGDCPGLNAVIRAVTKAAINEYGYEVIGYVYGYRGLYNNDYIELTVDKVENIYKEGGTILYSSNKDNLFDYLVDDGHGGKVKKDVSDVGVENLKKAGVDVLVVLGGDGTLTSARDFARKGVNVIGIPKTMDNDLPATDLTYGFISASSVGTEFIDRLNTTAKSHHRVICCELMGRDAGWIALYAGMAGNASCILIPEIPFTIDSIVRHVEKRDKEGYPYTVIAVAEGAKYADGTKVIGKIVEDSPDPIRLGGIASKVADDLEKVIKNHEVRSVNPGHIIRGGDIQAYDRILSIRFGVKAVELIHEGKFGNVVTLKGEEMSYTSLEEVIGDAKFGKQKHVDPNGELVRAAKSIGICFGDD	failed
MADKIKVSLLGSTGMVGQKMVKMLAKHPYLELVKVSASPSKIGKKYKDAVKWIEQGDIPEEVQDLPIVSTNYEDHKDVDVVLSALPNELAESIELELVKNGKIVVSNASPFRMDPDVPLINPEINWEHLELLKFQKERKGWKGILVKNPNCTAAIMSMPIKPLIEIATKSKIIITTLQAVSGAGYNGISFMAIEGNIIPYIKGEEDKIAKELTKLNGKLENNQIIPANLDSTVTSIRVPTRVGHMGVINIVTNERINIEEIKKTLKNFKSLPQQKNLPTAPKQPIIVRDEEDRPQPIIDVNAESGMAVTVGRIRHENNVLRLVVLGDNLVRGAAGITILTVEVMKELGYI	not failed
MADLALLVLTLLWGTTFALVKEALEIASPGVFLTARFGLAAVALLAAWALRPRAPLGDGFWRHGILLGLTMLVGFVLQTVALRHTTPARSGFITGLNVLVVPVVARWFLGRRVRPAFWVGVAFALAGLVMLTRPFTPGAVTEEVRFGDLLTLFCAVAYGLQVTFTSEWAPRHPLAPFVAVQVLVTLAGALVLAPLEGPRFDPAGAGHFALVVAFTGLVMTALAFFVMNWGQRHTTAVRAALIFSLEPAAAAVFSWLYYGEPLGPLDWAGGALMVLGVVAGEVGGVLEARAPRRARGERASTGPG	failed
MADLRLEREFAVAPEALFAWVSDGAKLLQWWGPEGLHVPADQHDLDFTRLGPWFSVMVNGEGQRYKVSGQVTHVKPPQSVGFTWGWHDDDDRRGAESHVMFIVEPCAKGARLILDHRELGDDEMSLRHEEGWTSSLRKLAAELALEHHHHHH	not failed
MADNGQADRKERSNGVIVGTCLAFVAGMIGMAYAAVPLYDMFCRVTGYNGTTQRVEQASDLILDEKIKVTFDANVAAGLPWEFVPVQRDIDVRIGETVQIMYRAKNLASTPTTGQATFNVTPMAAGAYFNKVQCFCFTETTLEPGEEMEMPVVFFVDPEIVKPVETQGIKTLTLSYTFYPREPSKPVAQVKAKAENKL	not failed
MADNTLHSSARANWLERRFALRSRGGTLRTECLAGITGFLAAAYLLVVIPGLLAIGGMDKGAATTGTILVFVVGSLLMAFYANLPFIVGPGIGGSVLVGVTLAGSEGIGWQTGLGIACWSGILFFLLTRFGLREVVTRSVPQSIKLGLTASIGLFVAVLGFRNAGLVLANAKTNALMLGDFLAPGALVALCGLFLAIALQARKVPGAILWAILCATLVGIPFGVTKLPTHFIDAPHSLAPVLGQVDLLGALNIAFLPFLFVFFASEFFSTMGTTLAVGGEAGLLDEEGNMPQINRPFMVDSIAAALGPWLGIPAATALIESSAAAEAGGKTGLTALSAAVMFLLMLLFTPVALMIPKEATAPALILIGLNMFSGLRKVDLANFTDGLPVLMMVMITLIANSFGTGIAGGLLFYIVIKAIAGKWREIPIGLWVLAVPLVYYFATLVRH	failed
MADPKELQDKFWKALKSDRTVMLGLDGVEDGHARPMTAQIEGDSGGPIWFFTSKDNALIAMLGQGRRVIGAFSSKGHDLFASISGSLREDTDPAVVDRLWNPYVAAWYEGGKDDPKLALLRLDADHAQIWLNGSSLLAGIKVLLGV	not failed
MADQLYLENIDEFVTDQNKIVTYKWLSYTLGVHVNQAKQMLYDYVERKRKENSGAQLHVTYLVSGSLIQNGHSCHKVAVVREDKLEAVKSKLAVTASIHVYSIQKAMLKDSGPLFNTDYDILKSNLQNCSKFSAIQC	failed
MADSAELKQMVMSLRVSELQVLLGYAGRNKHGRKHELLTKALHLLKAGCSPAVQMKIKELYRRRF	not failed
MADSKEKLFSDFPAVSTEQWMEKITADLKGADFEKKLVWRTNEGFKVKPFYRQEDLEGLKTTEGLPGEFPYVRGTKKNDNTWFVRQEIKVECPKEANAKALDILNKGVDSLGFYVKKKDLSPEYIETLLNDICAECIELNFSTCQGHTVELAKLLVAYFQKKGYDLTKLQGSVNYDPMGKMMVKGKDLSNFITTAKELVEVLAPLPKFRCICVNAIELNNAGSYISQELGYALAWGNEYLSKLVEAGVPAALAAKKIKFNFGISSNYFLEIAKFRAARMLWADIVKEYHPQCNRQPECPNKAEDGTCLCACKMVAHAETSTFNLTLFDAHVNLLRTQTEAMSAALAGVNSITVTPFDKTYETPDDFSERIARNQQLLLKEECHFNKVVDPAAGSYFIENLTISIATQAWELFLKVEDEGGMLEAVKAGKVQEAINASNKARHDSVSKRKEILLGTNQYPNFNEKAGEKAPVEAKCCCGGNHDSCEKPFATLNFDRAASQFEALRLQTEKSGKRPKAFMLTIGNLAMRQARAQFSCNFLACAGYEVIDNLGFPTVEAGVEAAMKAGADIVVICSSDDEYAEYAIPAFKALDGRAIFIVAGAPACMEELKAAGIENFIHVRVNVLDTLKEYNAKLGIK	failed
MADTGDTAGAKKNGDSTFTVLVAAFANLGIAVAKAVAGVISGSSAMLSEAAHSVADTVTEVLLLTSLKRSVRPADEDHPLGHGPERYIWALLAAVATFVGGAVFSLYDGIHTLTHGEDLGDPLVSYIVLAVAFVLEGYSLRTGLRQVRGEAAHHRVSFGRYLRRTPDTAVKAVVMEDSAALAGLLLAAGGLLGGQLTGSGVWDAVASLCIGALLLYVAWVLGRSNAEFLVGRPLSRSVRDRIRAELVADEHIEAVLELTTLVQGPREALVAAKVDFRDVSTAAQIEWACERAEQRLREEFPIVRRVYLDPTPGFAQRRTEGLNPWP	failed
MADTNYIRDLSLHRNNHVLYVKILSIWDNQSMIFGTPTTMILYDVKGTRIDTRVPWGDYLNNFKPSLFEGKWYYIADFRLKRATSIPKYSSFNYEIEFMWHTKMWPVSDRSDESSLQFIHADEIESESEDYVTDAIGVISSVSTEARFPYVCREGETDYEARYVTFTIRDNLDRIITCVARGSACESFLTKFYRLIGMKTYNYEPITTVLRFFRASNFKGSKALISEHGCSRIFIEESFPDFDVTVYINWFACEDDGSVEGKIEYFVEN	failed
